One data set addresses Asp19 (UniProt position 362, WTGMIDGWYGY). Put plainly: NMR. The settings on record: DPC micelle-bound helical hairpin.
The target of a further data set is Glu11 (UniProt position 354, IAGFIEGGWTG). Nature of the data set: NMR. The settings on record: DPC micelle-bound helical hairpin.

As to “Hemagglutinin HA2 fusion peptide HAfp23 (Influenza A virus (serotype H1; strain not stated))”, the values for the pKa in the data set with Asp19 and in the data set with Glu11 were 4.35±0.02 and 5.31±0.01, respectively.

The values are drawn from PMC3048900.
